One substance from patent US11091749B2, “Deimmunized lysostaphin and methods of use” (TRUSTEES OF DARTMOUTH COLLEGE, priority 2014, dated 2021) can be followed below.

Data set [1] can be described thus: Thermostability by differential scanning fluorimetry. The class given is physicochemical. The protocol: The relative thermostability of the lysostaphin variants was determined by differential scanning fluorimetry, as previously described (Niesen, et al. (2007) Nat. Protocols 2:2212-2221). Proteins and SYPRO Orange were diluted in PBS (final concentrations of 100 μg/ml and 5× in 20 μl reaction volume, respectively), and fluorescence was quantified at 1-degree increments from 25 to 94° C. using an Applied Biosystems ABI 7500 fast real-time PCR system. The reactions were performed using PCR Plates for Fast Thermocyclers (VWR; Radnor, Pa.). Fluorescence was quantified using the preset TAMRA parameters. Melting temperatures were determined by data analysis with the ‘DSF Analysis v3.0.xlsx’ EXCEL sheet and GraphPad Prism v.6.02 software.
Background: In DSF a fluorescence change marks the thermal transition of the protein.

The subject of data set [2] is MRSA strain USA400. Nature of the data set: In vitro inhibitory activity (MIC). The class given is cell-based, Staphylococcus aureus. To be noted: 50° C. for 1 hour prior to assay. From the text:
F11, P12 and F13 were screened for in vitro inhibitory activity against MRSA strain USA400 (FIG. 7).

The test system of data set [3] is MRSA strain USA400. Nature of the data set: In vivo efficacy of F11, intraperitoneal MRSA challenge. Details: species or system C57BL/6 mice. To be noted: 100 μg single bolus i.v. 1 h after 2×10^8 MRSA i.p. The protocol:
Mice were challenged with an intraperitoneal injection of 2×10^8 MRSA strain USA400, and 1 hour later the mice were treated with 100 μg wild-type LST, F11 or PBS. The percent survival is shown.
The in vivo efficacy of the F11 variant was further analyzed in C57BL/6 mice. Mice were challenged with an intraperitoneal injection of 2×10^8 MRSA strain USA400, and 1 hour later the mice were treated with 100 μg wild-type LST, F11 or PBS, administered as a single bolus intravenous injection. The survival rate for both protein treatments was 1/3. The 100 μg dosage was selected because wild-type LST is known to be only partially efficacious at this dose.

In the case of “Wild-Type: wild-type lysostaphin (SEQ ID NO:49) produced in P. pastoris; aglycosylated Ser126Pro backbone in the design studies [reference compound]”, the Tm in data set [1] (SYPRO Orange, PBS) came to 59.2 °C; in data set [1] (biological duplicates) it was 59.0 °C. For the same substance, the “retained original MIC activity after heating” value in the data set on MRSA strain USA400 [2] was “full”. Besides, the survival rate with MRSA strain USA400 [3] is recorded as 1/3.
